Assay results reported in patent CN115124620A (SHENGHE CHINA BIO PHARMACY CO LTD, dated 2022).

T1: 人NKp30-his蛋白(KACTUS;Cat:NKP-HM430) (human, UniProt O14931 19-135)
T1 construct: Bought protein; Molar concentration was calculated with 35 kDa; also called 重组人NKp30-his; 人NKp30蛋白; not shown: his tag
T1 sequence (looked up): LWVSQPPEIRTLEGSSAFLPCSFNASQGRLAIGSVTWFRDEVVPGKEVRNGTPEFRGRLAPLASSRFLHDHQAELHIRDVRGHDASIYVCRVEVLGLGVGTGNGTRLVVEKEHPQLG


Biological target: T1, 人NKp30-his蛋白(KACTUS;Cat:NKP-HM430)
Experiment: BLI (Octet Red96e), antibody captured on sensor, 100 nM human NKp30-his in solution, 1:1 model

| Binder | Kd | koff | kon |
| --- | --- | --- | --- |
| 抗体2 (antibody, V domains shown, Mouse hybridoma monoclonal antibody purified on Protein A; also called 鼠源抗NKp30抗体; NKp30 mAb) VH: EVQLQQFGAELVKPGASVKISCKASGYTFTDYNMDWVKQSHGKSLEWIAYINPNYEITTYNQKFKGKATLTVDKSSSTAYMELRSLTSEDTAVYYCARGRGGYDPAMDYWGQGTSVTVSS VL: SIVMTQTPKFLLVSAGDRVTITCKASQSVSNDVTWSQQKPGQSPKLLIYYASNRYTGVPDRFTGSGYGTDFTFTISTVQAEDLAVYLCQQDNSTPPTFGAGTKLELK | 197 pM | 0.000212 s⁻¹ | 1.08e+06 M⁻¹ s⁻¹ |
| 抗体1 (antibody, V domains shown, Mouse hybridoma monoclonal antibody purified on Protein A; also called 鼠源抗NKp30抗体; NKp30 mAb) VH: QVQLQQPGAELVKPGASVKLSCKASGYTFTSYWMEWVKLRPGQGFDWIGEINPSNGGTNYNEKFKRKAILTVDKSSSAAYMQLSGLTSEDSAVYYCTIGGDYAWFAYWGQGTLVTVSA VL: DIKMTQSPSSMYASLGERVTITCKASQDIKSYLSWYQQKPWKSPKTLIFYATSLADGVPSRFSASGSGQDYSLTISSLESDDTATYYCLQHGESPYTFGGGTKLEIK | 439 pM | 0.000708 s⁻¹ | 1.61e+06 M⁻¹ s⁻¹ |
| 抗体3 (antibody, V domains shown, Mouse hybridoma monoclonal antibody purified on Protein A; also called 鼠源抗NKp30抗体; NKp30 mAb) VH: QGQLQQSGAEVMKPGASVKISCKANGHTFGSYWIEWIKQRPGHGLEWIGEILPGSGSKKYNEKFEGKATFTEETSSNTAYMELTSLTSEDSAVYYCSRGGYYGSRFAYWGQGTLVTVSA VL: DVVLTQTPLSLPVNIGDQASISCKSTKSLLNSDGFTYLDWYLQKPGQSPQLLIYLVSNRFSGVPDRFSGSGSGTDFTLKISRVEAEDLGVYYCFQSNYLPFTFGSGTKLEIK | 2030 pM | 0.00194 s⁻¹ | 959000 M⁻¹ s⁻¹ |

More lines, now with the values ahead:

| Kd | koff | kon | Binder |
| --- | --- | --- | --- |
| 5430 pM | 0.00585 s⁻¹ | 1.08e+06 M⁻¹ s⁻¹ | 抗体6 (antibody, V domains shown, Mouse hybridoma monoclonal antibody purified on Protein A; also called 鼠源抗NKp30抗体; NKp30 mAb) VH: QVQLQQSGAELVRPGVSVKISCKGSGYTFTDYAMHWVKQSHAKSLEWIGIISTYYGDASYNQKFKGKATMTVDKSSSTAYMELARLTSEDSAIYYCARDYDNRYAAMDYWGQGTSVTVSS VL: DIVMTQAAFSNPVTLGTSASISCRSSKSLLHSNGITYLYWYLQKPGQSPQLLIYQMSNLASGVPDRFSSSGSGTDFTLRISRVEAEDVGVYYCAQNLELPYTFGGGTKLEIK |
| 821 pM | 0.000552 s⁻¹ | 673000 M⁻¹ s⁻¹ | 抗体5 (antibody, V domains shown, Mouse hybridoma monoclonal antibody purified on Protein A; also called 鼠源抗NKp30抗体; NKp30 mAb) VH: VLILKESGGGLVKPGGSLKLSCAASGFAFSSYDMSWVRQTPEKRLEWVATISSGGSYTYYPDSVKGRFTISRDNARNTLYLQMSSLRSEDTALYYCARHFGDHDGYVMDYWGQGTSVIVSS VL: DIVMTQSPSSLAMSLGQKVTMSCKSSQSLLNSSNQKSNLAWYQQKPGQSPKLLVYFASTRESGVPDRFIGSGSGTDFSLTIRSVQAEDLADYFCQQHYSTPFTFGSGTKLEIK |
| 846 pM | 0.000338 s⁻¹ | 399000 M⁻¹ s⁻¹ | 抗体4 (antibody, V domains shown, Mouse hybridoma monoclonal antibody purified on Protein A; also called 鼠源抗NKp30抗体; NKp30 mAb) VH: EVQLVESGGGLVKPGGSLKLSCAASGFTFSDYGMSWIRQTPEKRLEWVASISSGGTYTYYPDSVKGRFTISRDSAKNTLYLQMNSLRSEDTAMYYCARRDGYYSVEYWGQGTSVTVSS VL: QIVLTQSPAIMSASPGGEVTMTCSASSSVSFMHWYQQKSGTSPKRWIFDTSKLASGVPTRFSGSGSGTSYSLTISSMEAEDAATYYCQQWTTNPPTFGGGTKLEIK |
